Laboratory results taken from US20080226722A1, “Gel Composition Comprising Charged Polymers” (priority 2004, published 2008).

Legend:
[1] = Protein release from gels comprising anionically and cationically charged microparticles (release buffer, 37° C., BCA Protein Assay); assay type: physicochemical; details: for time to reach a release of 50% of protein: HEPES pH 7 isotonised with NaCl, 37° C.
Experimental: To each of the gels prepared according to example 5, 1.5 mL release buffer (HEPES, pH 7, 100 mM, isotonised with NaCl) was added. Subsequently, the cups were incubated at 37° C. Samples of 1.0 mL were taken at various intervals and replaced by 1.0 mL fresh buffer. The protein concentration in the samples was measured […] using the BCA Protein Assay.
Gels loaded with IgG were prepared in analogy to example 5 and tested in analogy to example 6, except that IgG was used as a model protein instead of lysozyme and BSA.

[2] = Incorporation of protein into charged microparticles; assay type: physicochemical; details: neutral or physiological pH

| Substance | protein released ([1]; after about 60 days, gels prepared in analogy to example 5) | release rate compared with the other model proteins ([1]; gels of oppositely charged microparticles) | time to reach a release of 50% of protein ([1]; 12.5%-gel (solid content about 12.5%)) | time to reach a release of 50% of protein ([1]; 25.5%-gel (so in the source)) | incorporation into negatively charged microparticles [2] | incorporation into positively charged microparticles [2] |
| --- | --- | --- | --- | --- | --- | --- |
| IgG | approx. 50% | substantially slower |  |  |  |  |
| lysozyme |  |  | about 20 h | about 85 h | easily incorporated | not very efficiently incorporated |
